Earlier results on one molecule are cited in patent publication US20250304973A1, “HIGH-AFFINITY THROMBIN APTAMERS AND METHODS OF USE” (Ayass Bioscience LLC, priority 2024, published 2025).

The conditions of this data set: reversal of dabigatran.

B1: Idarucizumab: a monoclonal antibody that binds to dabigatran and neutralizes its anticoagulant properties (antibody, chains of the INN, looked up, V domains shown)
VH: QVQLQESGPGLVKPSETLSLTCTVSGFSLTSYIVDWIRQPPGKGLEWIGVIWAGGSTGYNSALRSRVSITKDTSKNQFSLKLSSVTAADTAVYYCASAAYYSYYNYDGFAYWGQGTLVTVSS
VL: DVVMTQSPLSLPVTLGQPASISCKSSQSLLYTDGKTYLYWFLQRPGQSPRRLIYLVSKLDSGVPDRFSGSGSGTDFTLKISRVEAEDVGVYYCLQSTHFPHTFGGGTKVEIK
modifications: Fab
Regarding B1, the “time to reversal of anticoagulant effect” value is “this in ~2-4 hours”.
